Consider one molecule from US20220064279A1 (AstraZeneca / MedImmune, published 2022).

The assay concerns the target endogenous LIF of U-251 glioma cells (human, UniProt P15018 23-202). Briefly: cell-based or functional assay.

Chain of endogenous LIF of U-251 glioma cells (P15018 23-202 limits assumed): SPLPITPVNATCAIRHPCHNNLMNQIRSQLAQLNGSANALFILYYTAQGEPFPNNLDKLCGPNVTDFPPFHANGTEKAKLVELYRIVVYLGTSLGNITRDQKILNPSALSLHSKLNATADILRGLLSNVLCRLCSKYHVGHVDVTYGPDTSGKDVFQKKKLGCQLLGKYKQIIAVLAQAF

B1: h5D8 (humanized 5D8, H2L2) (antibody, V domains shown)
VH: QVQLQESGGGLVKPGGSLRLSCAASGFTFSHAWMHWVRQAPGKGLEWVGQIKAKSDDYATYYAESVKGRFTISRDDSKNTLYLQMNSLKTEDTAVYYCTCWEWDLDFWGQGTMVTVSS
VL: DIVMTQTPLSSPVTLGQPASISCRSSQSLLDSDGHTYLNWLQQRPGQPPRLLIYSVSNLESGVPDRFSGSGAGTDFTLKISRVEAEDVGVYYCMQATHAPPYTFGQGTKLEIK
Consider B1, for which the “IC50 for biological inhibition (pSTAT3, MSD assay, serum starved U-251 cells)” value was 490 picomolar.
